Data reported in the supplement of paper PMC10724198.
± gives the standard deviation of the averaged measurements.

Test system: Saccharomyces cerevisiae
Test: protein stability index of tFT-peptide fusion (C-terminal peptide) (PSI (0-1 scale)); higher = more stable (slower turnover)
Settings: genetic background: wild type; temperature: 30 C
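Further: PSI is a weighted mean of sequencing reads over stability bins, variants kept only with over 10 reads, mCherry proximal and sfGFP distal, peptide attached via GGGS linker.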

Sequence	protein stability index
PPALPLFPNAAG	0.709 ± 0.049
PPALPPCRSRLV	0.72 ± 0.049
PPALRPSPPLSP	0.698 ± 0.065
PPAPFLLNPVPP	0.727 ± 0.015
PPAPLALPRLPS	0.715 ± 0.061
PPAPLLLPLSRP	0.735 ± 0.0098
PPAPPAFPRFGT	0.703 ± 0.0051
PPAPPHALPPGP	0.671 ± 0.033
PPAPPPADLGPP	0.644 ± 0.093
PPAPPPAPPHSS	0.633 ± 0.061
PPAPPPHPPLPP	0.706 ± 0.043
PPAPPPPPIRPP	0.696 ± 0.033
PPARHSPIFPVH	0.786 ± 0.022
PPASPPAYVTHP	0.685 ± 0.049
PPASSARPLLFL	0.6664 ± 0.0053
PPCPPPPAPPPP	0.687 ± 0.044
PPCVSGHPLRYS	0.727 ± 0.045
PPDGRPQEVWVP	0.72 ± 0.037
PPDHLTHPHIVN	0.693 ± 0.013
PPDLPPPPPPPT	0.7 ± 0.055
PPDPNCLPKQTS	0.752 ± 0.058
PPDPSTLSTSPS	0.689 ± 0.042
PPEPPLSSLRRP	0.674 ± 0.073
PPFASPSPLPPP	0.7006 ± 0.0069
PPFFSHDWYLRV	0.695 ± 0.076
PPFLPASHPAPS	0.824 ± 0.065

Sequence	protein stability index
PPFPPPLLPPSP	0.732 ± 0.036
PPFSSRTRPPLC	0.67 ± 0.023
PPFVSPQRQRLV	0.669 ± 0.019
PPGAQPRSPSPL	0.771 ± 0.08
PPGPAPPHAASH	0.6421 ± 0.0029
PPGPPIAPLFPP	0.657 ± 0.0071
PPGPSVPPHRPP	0.754 ± 0.049
PPHAPLPPPTPP	0.634 ± 0.037
PPHAPTRTTSGP	0.6388 ± 0.0013
PPHLCPTSLTTL	0.642 ± 0.026
PPHNTPLAPSQY	0.659 ± 0.0094
PPHPDTSPSFPP	0.6787 ± 0.0022
PPHPGALPPAAA	0.631 ± 0.035
PPHPPLPARPSP	0.681 ± 0.041
PPHPPPPLLPAP	0.715 ± 0.051
PPHPSPPTPPPH	0.687 ± 0.017
PPIPPALLLVSP	0.633 ± 0.0095
PPIVHPGSLRSA	0.673 ± 0.024
PPIVPFGSPVVL	0.728 ± 0.026
PPKEEPRWATGD	0.693 ± 0.043
PPLIPPSCSPLH	0.6864 ± 0.0027
PPLLLSPCPSLP	0.7229 ± 0.0034
PPLLPLCVPPPP	0.71 ± 0.033
PPLLPPGPPSPP	0.588 ± 0.01
PPLLPPPPRRPP	0.643 ± 0.0012
PPLLTPSVPFSS	0.715 ± 0.033

Sequence	protein stability index
PPLPFPPLPPSP	0.74 ± 0.063
PPLPFPPPPLPP	0.613 ± 0.029
PPLPLLPSPSPL	0.753 ± 0.086
PPLPLLSTCAGA	0.69 ± 0.15
PPLPLSTLFLSA	0.712 ± 0.041
PPLPPAPPPSPP	0.652 ± 0.029
PPLPPPCPLPRN	0.7711 ± 0.0013
PPLPPPPPDFSP	0.761 ± 0.18
PPLPPPPPRPPP	0.611 ± 0.086
PPLPPPRPLSPC	0.713 ± 0.094
PPLPPPRRSSPP	0.705 ± 0.02
PPLPPRSISPVL	0.737 ± 0.11
PPLPPRTPPPLS	0.704 ± 0.077
PPLPSPASPRTP	0.721 ± 0.031
PPLPSPPAHSRS	0.678 ± 0.02
PPLRLRLPPAVL	0.629 ± 0.095
PPLSPPALPPPL	0.672 ± 0.0076
PPLSSFSHHSFG	0.715 ± 0.069
PPLTPLPLGSPP	0.717 ± 0.027
PPLTRPPTPVPP	0.6626 ± 0.0048
PPLVHHSTLPPA	0.679 ± 0.022
PPLVPRTSPSPS	0.666 ± 0.012
PPLYPGSKVQLL	0.672 ± 0.011
PPNHRAGSWLAR	0.655 ± 0.012
PPNPFRHTPSIP	0.736 ± 0.027
PPNPNEPTQTPA	0.711 ± 0.013

Sequence	protein stability index
PPNPPPPPLPPP	0.666 ± 0.068
PPPAASCLLLPL	0.699 ± 0.028
PPPALLAPPLPF	0.756 ± 0.096
PPPAPAPPLTSS	0.71 ± 0.023
PPPAPLALTPSL	0.71394 ± 0.00049
PPPAPPPCAPTP	0.713 ± 0.043
PPPAPSPPPSPP	0.611 ± 0.0099
PPPAPSSPVLVP	0.686 ± 0.037
PPPARSPLPLPP	0.742 ± 0.018
PPPFPLLSPPPL	0.808 ± 0.0097
PPPHPHLPPHSD	0.69 ± 0.06
PPPHPLLRPSPS	0.737 ± 0.011
PPPHPPHSALPS	0.762 ± 0.021
PPPHPPLPPPTP	0.678 ± 0.039
PPPHPPPPAPPY	0.735 ± 0.019
PPPHPTLSPLVP	0.676 ± 0.013
PPPHTHPPTPLL	0.689 ± 0.011
PPPLASLPSFLR	0.739 ± 0.011
PPPLLPPRAPSP	0.6294 ± 0.0031
PPPLLTSSPPPR	0.712 ± 0.025
PPPLPASPPPPY	0.683 ± 0.035
PPPLPLSLCEPL	0.7 ± 0.019
PPPLPPALSPSH	0.679 ± 0.07
